Data reported in patent US8247380B2, “Alpha 1-acid glycoprotein, alpha 2-HS glycoprotein, alpha 1-antitrypsin, and fragments thereof induce apoptosis in cancer cell lines” (Ambryx Biotechnology, D.C., priority 1997, dated 2012).
Entries after “also recorded” stand apart in the source; their conditions may differ.

Columns and labels:
Hep G2 (Human hepatoma) = experiment: Apoptosis assay, Hep G2 cells
[1] = system: CCD-18 Co (human normal colon fibroblast); experiment: Apoptosis assay, CCD-18 Co cells; type: cell-based
Description: Zinc charged alpha 1-acid glycoprotein has no effect on CCD 18Co cells (human normal colon fibroblast).

[2] = system: Hs578 Bst (human normal breast); experiment: Apoptosis assay, Hs578 Bst cells; type: cell-based; conditions: peptide fragment: 6 hours
[3] = system: CCD25 Lu (human normal lung); experiment: Apoptosis assay, CCD25 Lu cells; type: cell-based; conditions: peptide fragment: 6 hours
[4] = system: p3HR-1 (human Burkitt lymphoma); experiment: Apoptosis assay, p3HR-1 cells; type: cell-based; conditions: peptide fragment: 6 hours
[5] = system: Calu-1 (human lung carcinoma); experiment: Apoptosis assay, Calu-1 cells; type: cell-based
cancer cell lines = experiment: Apoptosis assay, cancer cells (cell line not given); type: cell-based; conditions: cancer cells
[6] = system: HT-29 (human colon adenocarcinoma); experiment: Apoptosis assay, HT-29 cells
Description: Prostate cancer cell line LNCAP was routinely used for the isolation of Apogen P-1 and Apogen P-2, whereas leukemia cell line HL-60 was used for the isolation of Apogen L. The methods of assays were as follows: LNCAP or HL-60 (1,000 cells) was seeded in 10 microliters RPMI containing 15% or 20% Fetal bovine serum, penicillin and streptomycin at 37 degrees, 5% CO2 in Microtray plates (25 μl wells, Robbins Scientific Corp.). The tested sample (10 μl) was added 3-4 hours after cells were seeded. After incubation of the tested sample with cells for 15 hours, two microliters of Hoechst dye (0.03 ng/ml in PBS) was added. Two hours later, cells that were stained with Hoechst dye were examined under fluorescence microscope. […] The percentage of apoptotic cells was calculated by the following equation:
The DNA condensation, DNA fragmentation and peripheral crescents of the nuclei are characteristics of a cell under apoptosis.

HL-60 (leukemia) cells = experiment: Cell death (apoptosis) assay, HL-60 cells; type: cell-based, human
Description: Fetuin purified from fetal bovine serum by the procedure described above was dissolved in phosphate buffer saline (PBS). The free Zinc Acetate and Barium Acetate were removed by repetitive concentration. Fetuin was tested in LNCaP and HL-60 cells. […] Fetuin (in 10 μl PBS) at concentration of 100 ng/ml was added 3-4 hours after the cells were seeded.

[7] = system: LNCaP (prostate cancer) cells; experiment: Cell death (apoptosis) assay, LNCaP cells; type: cell-based, human; conditions: for induced apoptosis: 4 hours; for apoptotic activity relative to fetuin prepared by other methods, later conservative estimate: conservatively estimated
Description: […] The free Zinc Acetate and Barium Acetate were removed by repetitive concentration. Fetuin was tested in LNCaP and HL-60 cells. […] Fetuin (in 10 μl PBS) at concentration of 100 ng/ml was added 3-4 hours after the cells were seeded.

PC-3 (prostate cancer) = experiment: Apoptosis assay, PC-3 cells; type: cell-based; conditions: 50 μg/ml
[8] = system: MCF-7 (breast cancer) cells; experiment: Apoptosis assay, MCF-7 cells; type: cell-based
Colo 205 (colon cancer) = experiment: Apoptosis assay, Colo 205 cells; type: cell-based; conditions: 50 μg/ml
Description: The tested sample (10 μl) was added 3-4 hours after cells were seeded. After incubation of the tested sample with cells for 15 hours, two microliters of Hoechst dye (0.03 ng/ml in PBS) was added. Two hours later, cells that were stained with Hoechst dye were examined under fluorescence microscope. […] The percentage of apoptotic cells was calculated by the following equation:

[9] = system: CCD 39 Lu (normal lung fibroblast); experiment: Apoptosis assay, CCD 39 Lu cells; type: cell-based, human
[10] = 100 ng/ml in PBS, 15 hours, Hoechst dye

“zinc charged alpha 1-acid glycoprotein: alpha 1-acid glycoprotein from adult human serum, EDTA treated and charged with zinc acetate” was tested, and the “apoptotic activity, panel of cell lines (in words)” value (from here on “apoptotic activity, panel”) (Hep G2 (Human hepatoma)) was “apoptotic activity was present”, the cell death (Hep G2 (Human hepatoma); 5 μM, 4 hours) was 90% and the “cell death (in words)” value ([1]; 5 μM, six hours) was “did not cause cell death”. For the same molecule, the “apoptotic activity, panel” value ([1]; peptide fragment: 6 hours) was “no activity was present”, the “apoptotic activity, panel” value [2] was “no activity was present; also recorded: no effect was seen” and the “apoptotic activity, panel” value [3] was “no activity was present; also recorded: no effect was seen”. For the same molecule, the “apoptotic activity, panel” value [4] was “apoptotic activity was present”, the “apoptotic activity, panel” value ([5]; peptide fragment: 6 hours) was “apoptotic activity was present” and the “concentration at which apoptotic activity was induced (apoptotic threshold)” value (cancer cell lines) was 0.75 µM. For the same molecule, the apoptosis ([6]; 5 μM, 4 hours) was 100%, the “apoptotic activity / morphology (in words)” value ([6]; 5 μM, 4 hours) was “resulted in the condensation and fragmentation of DNA” and the “apoptotic activity, panel” value ([6]; peptide fragment: 6 hours) was “apoptotic activity was present”. For the same molecule, the “apoptotic activity, panel” value (HL-60 (leukemia) cells; peptide fragment: 6 hours) was “apoptotic activity was present” and the “apoptotic activity, panel” value [7] was “apoptotic activity was present”.

B1: fetuin: bovine fetuin from fetal bovine serum by the modified Spiro method with zinc acetate (Section 4A) (protein, UniProt P12763 19-359, looked up)
Alpha-2-HS-glycoprotein: IPLDPVAGYKEPACDDPDTEQAALAAVDYINKHLPRGYKHTLNQIDSVKVWPRRPTGEVYDIEIDTLETTCHVLDPTPLANCSVRQQTQHAVEGDCDIHVLKQDGQFSVLFTKCDSSPDSAEDVRKLCPDCPLLAPLNDSRVVHAVEVALATFNAESNGSYLQLVEISRAQFVPLPVSVSVEFAVAATDCIAKEVVDPTKCNLLAEKQYGFCKGSVIQKALGGEDVRVTCTLFQTQPVIPQPQPDGAEAEAPSAVPDAAGPTPSAAGPPVASVVVGPSVVAVPLPLHRAHYDLRHTFSGVASVESSSGEAFHVGKTPIVGQPSIPGGPVRLCPGRIRYFKI
modifications: zinc
With B1 the “induction of apoptosis (in words)” value (PC-3 (prostate cancer)) was “strongly induced apoptosis”, the “induction of apoptosis (in words)” value ([8]; 25 μg/ml) was “highly induced apoptosis” and the “induction of apoptosis (in words)” value ([8]; 50 μg/ml) was “strongly induced apoptosis”. The “induction of apoptosis (in words)” value (Colo 205 (colon cancer)) was “strongly induced apoptosis”, the “induction of apoptosis (in words)” value ([9]; 25 μg/ml, 15 hours) was “inactive in inducing apoptosis” and the “induction of apoptosis (in words)” value ([9]; 50 μg/ml) was “is not affected”. For the same molecule, the “induction of apoptosis (in words)” value ([5]; 50 μg/ml) was “strongly induced apoptosis”, the “apoptosis, nuclear morphology (in words)” value (HL-60 (leukemia) cells; [10]) was “showed the characteristics of apoptosis” and the “induction of apoptosis (in words)” value (HL-60 (leukemia) cells; 25 μg/ml) was “highly induced apoptosis”. For the same molecule, the “induction of apoptosis (in words)” value (HL-60 (leukemia) cells; 50 μg/ml) was “strongly induced apoptosis”, the “apoptosis, nuclear morphology (in words)” value [7, 10] was “showed the characteristics of apoptosis” and the “induction of apoptosis (in words)” value ([7]; 25 μg/ml) was “highly induced apoptosis”. The induced apoptosis ([7]; 25 μg/ml) was “up to 90%”, the “induction of apoptosis (in words)” value ([7]; 50 μg/ml) was “strongly induced apoptosis” and the induced apoptosis ([7]; approximately 50 μM) was “up to 90%”. For the same molecule, the “apoptotic activity relative to fetuin prepared by other methods, later conservative estimate” value ([7]; listed as Fetuin as prepared in Section 4A) was “approximately 100 times”, the “apoptotic activity relative to fetuin prepared by other methods, later conservative estimate” value ([7]; listed as fetuin as prepared in Section 4A) was “more than one hundred times greater” and the “apoptotic activity relative to fetuin prepared by other methods, initial estimate” value ([7]; initially estimated) was “more than fifty thousand folds higher; also recorded: more than fifty thousand times higher”.
